# Experimental data taken from the nanobody polyreactivity screen of Harvey et al. (2022).
# Assay: yeast display, Sf9 membrane polyspecificity reagent, FACS + sequencing; frameworks hold sequencing errors
# How it was run: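 Using colony PCR, genes from sorted yeast display clones were amplified, then sequenced on MiSeq at 2 × 250 and filtered by CDR length. The clones had been stained with 10% biotinylated, detergent-solubilized Sf9 membrane reagent for 1 hour at 4 °C and sorted by FACS into low and high (top ~1%) gates on anti-HA and streptavidin fluorescence. Polyreactivity labels come from the gate of origin.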
row,Sequence,polyreactivity (PSR sort gate)
1,QVQLVESGGGLVQAGGSLRLSCAASGSIFGRNDMGWYRQAPGKERELVAAISGDTTTNYADSVKGRFTISRDNAKNTVYLQMNSLKPEDTAVYYCAAKYGYRRGTVRGYTRVYYWGQGTQVTVSS,high polyreactivity
2,QVQLVESGGGLVQAGGSLRLSCAASGSTFSGNALGWYRQPPGKERELVAAITSSGGSTDYADSVKGRFTISRDNAKNSVYLQMNSLKPEDTAVYYCNTVFHYFNSGAYNFGYWGQGTQVTVSS,high polyreactivity
3,QVQLVESGGGLVQAGGSLRLSCAASGRIFKFYAMGWYRQAPGKERELVAAISRTGGNTYYADSVKGRFTISRDNAKNTVYLQMNSLKPEDTAVYYCAAETYARSSSSKYEYWGQGTQVTVSS,high polyreactivity
4,QVQLVESGGGLVQAGGSLRLSCAASGRIFVINAMGWYRQAPGKERELVAAISRRGANTYYADSVKGRFTISRDNAKNTVYLQMNSLKPEDTAVYYCNKVTVYRFRGDSWGQGTQVTVSS,high polyreactivity
5,QVQLVESGGGLVQAGGSLRLSCAASGGTFYGYAMGWYRQAPGKERELVAAITSGDSTNYADSVKGRFTISRDNAKNTVYLQMNNLKPEDTAVYYCAAGDPTLLNESFDYWGQGTQVTVSS,low polyreactivity
6,QVQLVESGGGLVQAGGSLRLSCAASGSIFTNAMGWYRQAPGKERELVASIDANAGDTHYADSVKGRFTISRDNAKKTVYLQMNSLKPEDTAVYYCNADVTERLWTGEDDYWGQGTQVTVSS,low polyreactivity
7,QVQLVESGGGLVQAGGSLRLSSAASGSTFRRNAMGWYRQAPGKQRELVAAITWRGTSTYYADSVKGRFTISRDNAKNTVYLQMNSLKPEDTAVDYCAAPWVVRRTAYDYWGQGTQVTVSS,high polyreactivity
8,QVQLVESGGGLVQAGGSLSLSCAASGYIFGPYDMGWYRQAPGKERELVAVIDWSGGSTYYADSVKGRFTISRDNAKNTFYLQMNSLKPEDTAVYYCAADISWGVSQFDYWGQGTQVTVSS,low polyreactivity
9,QVQLVESGGGLVQAGGSLRLSSAASGLTLRTYAMGWYRQETGQERELVAAITSGGGSTYYADSVKGRFTISRDNSKNTVYLQLNSLNQEDTAFYYCAAKPVVRYVSFGYDYWGQGTDVTVSS,high polyreactivity
10,QVQLVESGGGLVQAGGSLRLSCAASGSTFYYYAMGWYRQAPGKERELVASINYSAGRTYYADSVKGRFTISRDNAKNTVYLQMNSLKPEDTAVYYCATGYPYHVNRYYYWGQGTQVTVSS,high polyreactivity
11,QVQLLESRGGLVQAGGSLRLSCAASGSIFYIYAIGWYRQAPGKEREFVAAIRQSDGRTYYADSVKGRFTISRDNAKNTVYLQRTSLNPEDTAVYYCAAQYPVNYIWGYNDWGQGTQVTVSS,high polyreactivity
12,QVQLVDSGGGLVQAGGSLRLSCAASGSTRRGYAMGWYRQAPGKERELVASISRRGGSTYYADSVKGRFTISRDNAKNTVYLQMKSLKTEVTAVYYCAATGRRGYGYGYWGQGTQVTVSS,high polyreactivity
13,QVQLVESGGGLVQAGGSLRLSCAASGITFRQNTMGSYRQAPGKEGELVAAITSSGRTYYADSVKGRFTISRDNAKNTVYLQMNSLKPEDSAVYYCAADTYYFGYGYWGQGTQVTVSS,high polyreactivity
14,QVQLVESGGGLGQAGGSLRLSCAASGRTLGAYAMGWYRQAPGKERELVAAISGSGGSTYYADSVKGRFTISRDNAKNTVYLQMNSLKPEDTAVYYCAAVLSRYGQSISMYYWGQGTQVTVSS,high polyreactivity
15,QVQLVESGGGLVQAGGSLRLSCAASGRIFRSYAMGWYRQAPGKERELVAAISGSGGSTYYADSVKGRFTISRDNAKNTVYLQMNSLKPEDTAVYYCNRARGASYHGQSDYWGQGTQVTVSS,high polyreactivity
16,QVQLVESGGGLVQAGGSLRLRCAASGSTFANYAMGWYRQAPGKERELVAAISVGDGSTYYADSVKGRFTISRDNAKNTVYLQMNILKPEDTAVYYCSRVRGGYDSWGQGTQVTVSS,high polyreactivity
17,QVQLVESGGGLVQAGGSLRLSCAASGSTFKYYAMGWYSQAPGKERELVAAISKGATRTYYADSVKGRFTISRDTAKNTVYLQMNSLKPEDTAVYYCAADRLKFPGEYDYWGQGTQVTVSS,high polyreactivity
18,QVQLVESVGGLVKAGGRLRLSCAASGRIFPPNALACSRQAPGKERELVADNNFSGDSTYYADSVKGRFTISRDNAKNTVYLQMNSLKPEDTSVYYCAAVISLVSYYYWGQATQVTVSS,low polyreactivity
19,QVQLVESGGGLVQAGGSLRLSCAASGSISGYYAMGWYSQAPVKERELVASIRYTGARTYYADSVKGRFTISRDNAQNTVYLQMNSLKPEDTAVYYCAADVKRDRVWGGDYWGQGTQVTVSS,low polyreactivity
20,QVQLVESGGGLVQAGGSLRLSCAASGRTFDGYTMGWSRQAPGKERELVAAISRTGSTNYADSVKGRFTISRDNAKNTVYLQMNSLEPEDTAVYYCNAARRYFRYSRKTSAWYYYWGQGTQVTVSS,high polyreactivity
21,QVQHVESGGGLVQAGGSLRLSCAASGSIFSHYAMGWYRQEPGKERELVATITWRGGSNTNYADSVKGRFTISRDNAKNTVYLQMNSLKPEDTAVYYCNAAFPYHYRFDYWGQGTQVTVSS,low polyreactivity
22,QVQLVESGGGLVQAGVSLRLSCAASGRIFYHNAMGWYRQAPGKEREFVAAISSRGGTTYYADSVKGRFTISRDNAKKTVYLQMNILKPEDTAVYYCAKQYYSASPAKGDYWGQGTQVTVSS,high polyreactivity

row,Sequence,polyreactivity (PSR sort gate)
1,QVQLVESGGGLVQAGGSLRLSCAASGSIFTNNAMGRYRQAPGKERELVAGISFRGSSTYADSVKGRFTISRDNAKNTVYLQMNSLKPEDTAVYYCAAEWFDLEDDYWGQGTQVTVSS,low polyreactivity
2,QVQLVESGGGLVQAGGSLRLSCAASGRIFGHNAMGWYRQAPGKERELVAAISYRGCSTYYADSVKGRCTISRDNAKNTVYLQMNSLKPVDTAVYYCAARWNRGRYDYWGQGTEVTVSS,high polyreactivity
3,QVQLVESGGGLVQAGGSLRLSCAASGIIFDEYAMGWYRQAPGKERELVATISSGGDTNYADSVKGRFTISRDNAKHTFYLQMNSLKPEDTALYYCAATVYDGYSPYDYDYWGQGTQVTVSS,low polyreactivity
4,QVQLVESGGGLVQAGGSLRLSCAASGRTFFIYAMGWYRQAPGKERELVAAIRWRGGSTYYADSVKGRFTISRDNAKNTVYLQMNSLKPEDTAVYYCAASNRQARYEDYYWGQGTQVTVSS,high polyreactivity
5,QVQLVESGGGLVQAGGSLRLSCAASGFIFSKNVMGWYRQAPGKERELVARITRSGGTTYYADSVKVRFTISRDNAKNTVYLQMHRLKQEDTAVYYCAARRYGYTSITWYDYWGQGTQVTVSS,high polyreactivity
6,QVQLVESGAGLVQAGGSLRLSCAASGSTFPFYAMGWSRQAPGKERELVAAITSGGSTYADSVKGRFTISRDNAKNTVYLQMNSLKPEDTAVYYCNAEQNPSGLYDYRGVEGEMGYWGQGTQVTVSS,low polyreactivity
7,QVQLVESGGGLVQAGGSLRLSCAASGSTFGGYAMGWYRQAPGKERELVATITGGGSTNYADSVKGRFTISRDNAKNTVYLQMNSLKPEDTAVYYCAATEKYQYKVYYDPVGAYDYWGQGTQVTVST,low polyreactivity
8,QVQLVESGGGLVQAGGSLRLSCAASGRIYRYYAMGWYRQPPAKERELVAAIRRGGSTSYADSVKGRFTISRDNAKNTVYLQMNSLKPEDTAVYYCAATQYYRGYDYWGQGTQVTVSS,high polyreactivity
9,QVHLVESGGALVQAGGSLRLSCAASGNTFNANAMGWYRQAPGKERELVAVISANGGRTYYADSVKGRFTISRDNAKNTVYLQMNSLIPEDTAVYYCAADSSGEYPGGYWGQGTQVTVSS,low polyreactivity
10,QVQLVESGGGLVQAGGSLRLSCAASGSIFFLYAMGWSRQAPGKEWELVAAISRTGSTYADSVKGRFTISRDNAKNTVYLQMNSLKPEDTAVYYCADEYRYYWYGTMNYWGQGTQVTVSS,low polyreactivity
11,QVQLVESGGGLDQAGGSLRLSCAASGSIFGYNGMGWYRQAPGKESEFVAAISYSGSRTYYADSVKGRFTISRDNAKNTVYLQMNSLKPEDTAVYYCATDDSHYLYRTVSAWEYDYWGQGTQVTVSS,low polyreactivity
12,QVQLVDSGGGLVQAGGSLRLSCAASGRTFGVNAMGWYRQAPGKERELVAAISSGSSTYYADSVKGRFTISRDNAKNTVYLQMNSLKPEDTAVYYCAAKYWSYYQSRSLSYRYFYWGQGTQVTVSS,low polyreactivity
13,QVQLVESGGGLVQEGGSLRLSCAASGFIFRYYAMGWYRQAPGKERELVAAISSSGGSTYYADSVKGRFTISRDNAKNTVYLQMNSLKPEDTAVSYCNAYNYGYIGYGYNYWGQGTQVTVSS,high polyreactivity
14,QVQLVESGGGLVQAGGTLRLSCAPYGIILYRIGMGWYRQAPGKERELVAAISWSTGSTYYADSEKGRFTISRDNAKNTVYLQMNSLKPEDTAVYYCATDYGGYSFGMYYWGQGTQVTVSS,low polyreactivity
15,QVQLVESGGGLVQAGGSLRLSCAASGFSFSRNAKGWYRQAPGKERELVAAISIRGGSTYYADSVKGRFTISRDNAKNTVYLQMNILKPEDTAVYYCNAYDLYRQRNGYGYWGQGTQVTVSS,high polyreactivity
16,QVQLVESGGGLVQAGGSLRLTSAASGSTFLKYTMGWYRQAPGKERELVAGITYSGGSTSYADSVKGRFTISRDNAKNTVYFQMNSLKPEDTAVYYSAAARNTVYSYRGLFYWGQGTQVTLSS,high polyreactivity
17,QVQLVESGGGLVQAGGSLRLSCAASGRTFRGNAMGWYRQAPGKERELVATINSGASTNYADSVKGRFTISRDNAKNPVYLQMNSLNPEDTAVYYCAAVKYFRWKYNYWGQGTQVTVSS,high polyreactivity
18,QVQLVESGGGLVQAGGSLRLSCSASGSIFRYNAMGWYRQAPGKERELVAGITSGGSTNYADSVKGRFTISRDNAKNTVYLQMNSLKPEDTAVYYCATGTRSYYRWWRLMNYWGQGTQVTVSS,high polyreactivity
19,QVQLVESGGGLVQAGGSLRLSCAASGRTFYFNGMGWYRQAPGKERELVATITASGTITYYADSVKGRFTISRDNAKNTVYLQMNSLKPEDTAVYYCAARQRGYYYSRSYDYWGQGTQVTVSS,high polyreactivity
20,QVQLVESGGGLVQAGGSLRLSCAASGSIFGAYTMGWYRQAPGKERELVAAISIGGSTNYADSVKGRFTISRDNAKNTVYLQMNSLKPEDTAVYYCAAYRQANRYGGEDYWGLGTQVTVSS,high polyreactivity
21,QVQLVESGGGLVQAGGSLRLSCAASGYIFPGNAMGWYRQAPGKERELVAAINWSGTRTYYADSVKGRFTISRDNAKNTVYLQLNSLKPEDTAVYYCNRVWRVPIETYTRYDYWGQGTQVTVSS,high polyreactivity
